Biological target: HIV Env on CEM-Env cells (HIV, strain not stated)

“CD4-CD28-CD3ζ chimeric receptor (from UniProt P01730 26-396)” showed an IFNγ in the culture of CEM-Env + CD4-dTc of 838 pg/mL, an IL2 in the culture of CEM-Env + CD4-dTc of 318 pg/mL and a TNFα in the culture of CEM-Env + CD4-dTc of 249 pg/mL.
